# Experimental data reported in patent US20100048462A1, “TRUNCATED PTH PEPTIDES WITH A CYCLIC CONFORMATION” (Zealand Pharma A/S, priority 2006, published 2010).
# Bridge positions count the residues as written; N and C are the ends. Square brackets hold non-standard residues; d marks the D form. hArg = N=C(N)NCCCC[C@H](N)C(=O)O; Met(O) = CS(=O)CC[C@H](N)C(=O)O; Ac5c = NC1(C(=O)O)CCCC1; Abu = CC[C@H](N)C(=O)O; Aib = CC(C)(N)C(=O)O
# B1: H-Ac5c-Val-Aib-Glu-Ile-Gln-Leu-Leu-His-Gln-Har-Ala-Lys( )-Trp-Leu-Asn-Asp( )-OH (peptide)
# chain: H-[Ac5c]V[Aib]EIQLLHQ[hArg]AKWLND-OH
# modifications: lactam 13-17
# SMILES: CC[C@H](C)[C@H](NC(=O)[C@H](CCC(=O)O)NC(=O)C(C)(C)NC(=O)[C@@H](NC(=O)C1(N)CCCC1)C(C)C)C(=O)N[C@@H](CCC(N)=O)C(=O)N[C@@H](CC(C)C)C(=O)N[C@@H](CC(C)C)C(=O)N[C@@H](Cc1c[nH]cn1)C(=O)N[C@@H](CCC(N)=O)C(=O)N[C@@H](CCCCNC(=N)N)C(=O)N[C@@H](C)C(=O)N[C@H]1CCCCNC(=O)C[C@@H](C(=O)O)NC(=O)[C@H](CC(N)=O)NC(=O)[C@H](CC(C)C)NC(=O)[C@H](Cc2c[nH]c3ccccc23)NC1=O
# B2: H-Abu-Val-Aib-Glu-Ile-Gln-Leu-Leu-His-Gln-Har-Ala-Lys( )-Trp-Leu-Asn-Asp( )-NH2 (peptide)
# chain: H-[Abu]V[Aib]EIQLLHQ[hArg]AKWLND-NH2
# modifications: lactam 13-17
# SMILES: CC[C@H](N)C(=O)N[C@H](C(=O)NC(C)(C)C(=O)N[C@@H](CCC(=O)O)C(=O)N[C@H](C(=O)N[C@@H](CCC(N)=O)C(=O)N[C@@H](CC(C)C)C(=O)N[C@@H](CC(C)C)C(=O)N[C@@H](Cc1c[nH]cn1)C(=O)N[C@@H](CCC(N)=O)C(=O)N[C@@H](CCCCNC(=N)N)C(=O)N[C@@H](C)C(=O)N[C@H]1CCCCNC(=O)C[C@@H](C(N)=O)NC(=O)[C@H](CC(N)=O)NC(=O)[C@H](CC(C)C)NC(=O)[C@H](Cc2c[nH]c3ccccc23)NC1=O)[C@@H](C)CC)C(C)C
# Molecular target: Saos-2 PTH1R (UniProt Q03431)
# Sequence (Q03431 27-593 limits assumed): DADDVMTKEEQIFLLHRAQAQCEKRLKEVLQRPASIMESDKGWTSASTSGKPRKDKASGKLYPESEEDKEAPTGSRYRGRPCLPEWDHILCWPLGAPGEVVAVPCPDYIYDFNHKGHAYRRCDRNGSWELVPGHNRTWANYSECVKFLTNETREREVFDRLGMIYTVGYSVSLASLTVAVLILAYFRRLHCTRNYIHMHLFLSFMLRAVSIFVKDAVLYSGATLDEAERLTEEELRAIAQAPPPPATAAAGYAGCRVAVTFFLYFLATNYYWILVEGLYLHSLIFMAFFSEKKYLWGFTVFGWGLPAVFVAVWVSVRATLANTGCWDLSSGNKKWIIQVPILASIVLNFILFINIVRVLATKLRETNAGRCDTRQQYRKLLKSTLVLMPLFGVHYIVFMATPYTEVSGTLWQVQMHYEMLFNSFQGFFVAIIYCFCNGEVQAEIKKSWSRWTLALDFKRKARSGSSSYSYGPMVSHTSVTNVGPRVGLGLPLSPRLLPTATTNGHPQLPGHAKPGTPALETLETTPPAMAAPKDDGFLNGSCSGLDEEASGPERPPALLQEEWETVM
# Experiment: cell-based or functional assay
molecule,measurement,value
H-Ac5c-Val-Aib-Glu-Ile-Gln-Leu-Met-His-Gln-Har-Ala-Lys( )-Phe-Leu-Asn-Asp( )-NH2 (peptide),"Emax, cAMP efficacy assay in Saos-2 cells (26T, trifluoroacetate salt) (relative to control (SEQ ID NO: 32))",1.08
same,"pEC50, cAMP efficacy assay in Saos-2 cells (26T, trifluoroacetate salt)",7.9 -log(M)
H-Ac5c-Val-Nva-Glu-Ile-Gln-Leu-Leu-His-Gln-Har-Ala-Lys( )-Trp-Leu-Asn-Asp( )-NH2 (peptide),"Emax, cAMP efficacy assay in Saos-2 cells (16T, trifluoroacetate salt) (relative to control (SEQ ID NO: 32))",1.03
same,"pEC50, cAMP efficacy assay in Saos-2 cells (16T, trifluoroacetate salt)",6.92 -log(M)
H-Ac6c-Val-Aib-Glu-Ile-Gln-Leu-Leu-His-Gln-Har-Ala-Lys( )-Trp-Leu-Asn-Asp( )-NH2 (peptide),"Emax, cAMP efficacy assay in Saos-2 cells (10T, trifluoroacetate salt) (relative to control (SEQ ID NO: 32))",1.08
same,"pEC50, cAMP efficacy assay in Saos-2 cells (10T, trifluoroacetate salt)",7.9 -log(M)
H-Nva-Val-Aib-Glu-Ile-Gln-Leu-Leu-His-Gln-Har-Ala-Lys( )-Trp-Leu-Asn-Asp( )-NH2 (peptide),"Emax, cAMP efficacy assay in Saos-2 cells (12T, trifluoroacetate salt) (relative to control (SEQ ID NO: 32))",1.04
same,"pEC50, cAMP efficacy assay in Saos-2 cells (12T, trifluoroacetate salt)",6.99 -log(M)
H-[Ac5c]V[Aib]EIQLMHQ[hArg]AKWLND-OH,"Emax, cAMP efficacy assay in Saos-2 cells (38T, trifluoroacetate salt) (relative to control (SEQ ID NO: 32))",1.2
same,"pEC50, cAMP efficacy assay in Saos-2 cells (38T, trifluoroacetate salt)",7 -log(M)
H-[Ac5c]V[Aib]EIQL[Met(O)]HQ[hArg]AKWLND-NH2 (lactam 13-17) [H-Ac5c-Val-Aib-Glu-Ile-Gln-Leu-Met(O)-His-Gln-Har-Ala-Lys( )-Trp-Leu-Asn-Asp( )-NH2],"Emax, cAMP efficacy assay in Saos-2 cells (40T, trifluoroacetate salt) (relative to control (SEQ ID NO: 32))",1.1
same,"pEC50, cAMP efficacy assay in Saos-2 cells (40T, trifluoroacetate salt)",6.9 -log(M)
B1,"Emax, cAMP efficacy assay in Saos-2 cells (5T, trifluoroacetate salt) (relative to control (SEQ ID NO: 32))",1.16
same,"pEC50, cAMP efficacy assay in Saos-2 cells (5T, trifluoroacetate salt)",7.14 -log(M)
B2,"Emax, cAMP efficacy assay in Saos-2 cells (11T, trifluoroacetate salt) (relative to control (SEQ ID NO: 32))",1.04
same,"pEC50, cAMP efficacy assay in Saos-2 cells (11T, trifluoroacetate salt)",7.17 -log(M)
